Assay results reported in paper PMC10786891, “Massively parallel profiling of RNA-targeting CRISPR-Cas13d”.
Substitutions are numbered along the chain they refer to. In names and notes the source's numbering stands.

T1: EsCas13d, nuclease-dead (Eubacterium siraeum, UniProt B0MS50, R295A;H300A;R849A;H854A)
T1 sequence: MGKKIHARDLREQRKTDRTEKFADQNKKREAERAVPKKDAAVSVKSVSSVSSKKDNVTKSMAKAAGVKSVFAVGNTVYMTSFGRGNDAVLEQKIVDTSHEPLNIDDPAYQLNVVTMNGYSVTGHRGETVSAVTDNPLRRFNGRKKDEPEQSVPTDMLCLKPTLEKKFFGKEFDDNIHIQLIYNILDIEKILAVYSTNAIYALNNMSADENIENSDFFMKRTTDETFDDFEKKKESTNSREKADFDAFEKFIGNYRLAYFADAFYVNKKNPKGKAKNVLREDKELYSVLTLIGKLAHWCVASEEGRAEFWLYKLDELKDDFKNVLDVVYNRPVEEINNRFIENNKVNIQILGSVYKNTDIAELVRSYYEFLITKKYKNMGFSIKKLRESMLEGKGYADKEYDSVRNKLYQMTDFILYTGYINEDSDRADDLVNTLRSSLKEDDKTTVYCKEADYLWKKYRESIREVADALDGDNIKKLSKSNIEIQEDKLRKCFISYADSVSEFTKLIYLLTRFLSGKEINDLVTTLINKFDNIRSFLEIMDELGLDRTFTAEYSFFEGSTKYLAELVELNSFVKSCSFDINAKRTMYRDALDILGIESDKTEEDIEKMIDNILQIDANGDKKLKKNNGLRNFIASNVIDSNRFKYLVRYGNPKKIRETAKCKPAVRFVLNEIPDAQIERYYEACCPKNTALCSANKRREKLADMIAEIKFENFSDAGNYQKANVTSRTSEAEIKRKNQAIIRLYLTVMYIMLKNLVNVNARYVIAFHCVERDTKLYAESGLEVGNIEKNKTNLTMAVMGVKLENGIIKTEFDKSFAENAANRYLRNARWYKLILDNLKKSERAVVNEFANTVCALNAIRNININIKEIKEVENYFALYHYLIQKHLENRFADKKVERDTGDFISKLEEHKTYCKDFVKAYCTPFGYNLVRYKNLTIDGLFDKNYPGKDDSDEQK

B1: target 1 G17U,A20G (mixed)
RNA 1: CACCCGUGCAAAAAUGCAGGGGUCUAAAACUGAGCGGAUAACCUCUCUAUGG
RNA 2: GGGAAUGGAUCCACAUCUACGAAUUCGUACCGUAUAGAGGUUAUCCGCUCACCGAGAUCGGAAGAGCACACGU
B2: target 1 insG 3' of 11,insG 3' of 4 (mixed)
RNA 1: B1 RNA 1
RNA 2: GGGAAUGGAUCCACAUCUACGAAUUCGUACCAUAGAGAGGUGUAUCCGCGUCACCGAGAUCGGAAGAGCACACGU
B3: target 1 A1U,G5A (mixed)
RNA 1: B1 RNA 1
RNA 2: B1 RNA 2 with G32A, U35G, G47A, A51U
B4: target 1 insU 3' of 18,insG 3' of 1 (mixed)
RNA 1: B1 RNA 1
RNA 2: GGGAAUGGAUCCACAUCUACGAAUUCGUACCAUAUGAGAGGUUAUCCGCUCAGCCGAGAUCGGAAGAGCACACGU
B5: target 1 C7U,G13A (mixed)
RNA 1: B1 RNA 1
RNA 2: B1 RNA 2 with G32A, U35G, G39A, C45U
B6: target 1 insC 3' of 8,insA 3' of 6 (mixed)
RNA 1: B1 RNA 1
RNA 2: B2 RNA 2 with G42U, U43A, A44U, U45C, G48A, C49G, G50C
B7: target 1 insA 3' of 6,insG 3' of 3 (mixed)
RNA 1: B1 RNA 1
RNA 2: B2 RNA 2 with G42U, U43A, A44U, U45C, C47A, G50U, U51G
B8: target 1 C2G,C4U (mixed)
RNA 1: B1 RNA 1
RNA 2: B1 RNA 2 with G32A, U35G, C48U, C50G
B9: target 1 A9U,G15U (mixed)
RNA 1: B1 RNA 1
RNA 2: B1 RNA 2 with G32A, U35G, G37U, A43U
B10: target 1 insU 3' of 18,insC 3' of 1 (mixed)
RNA 1: B1 RNA 1
RNA 2: B4 RNA 2 with G53C
B11: target 1 insC 3' of 1 (mixed)
RNA 1: B1 RNA 1
RNA 2: GGGAAUGGAUCCACAUCUACGAAUUCGUACCAUAGAGAGGUUAUCCGCUCACCCGAGAUCGGAAGAGCACACGU
B12: target 1 U8A,A20U (mixed)
RNA 1: B1 RNA 1
RNA 2: B1 RNA 2 with G32U, U35G, U44A
B13: target 1 insU 3' of 18,insA 3' of 2 (mixed)
RNA 1: B1 RNA 1
RNA 2: B4 RNA 2 with G53A
B14: target 1 insA 3' of 21,insU 3' of 20 (mixed)
RNA 1: B1 RNA 1
RNA 2: GGGAAUGGAUCCACAUCUACGAAUUCGUACCAAUUAGAGAGGUUAUCCGCUCACCGAGAUCGGAAGAGCACACGU
B15: target 1 G5U,C22A (mixed)
RNA 1: B1 RNA 1
RNA 2: B1 RNA 2 with C30A, G32A, U35G, G47U
B16: target 1 C6U,C21U (mixed)
RNA 1: B1 RNA 1
RNA 2: B1 RNA 2 with C31U, G32A, U35G, C46U

Target: T1, EsCas13d, nuclease-dead
Test: crRNA (strand 1, pre-loaded); Mg2+; 40 mM Tris-HCl pH 7.5, 150 mM NaCl, 6 mM MgCl2, 1 mM DTT, 0.1% Tween-20, 0.2 mg/ml BSA; 25 C; 10 min per concentration, then washed
Conditions: tags: His6-TwinStrep-SUMO cleaved; N-terminal SNAP kept (SNAP-Surface 488); label: 3' end held by stalled T7 RNA polymerase

Binder | Kd
B1 | 40 ± 6 nM
B2 | 54 ± 13 nM
B3 | 34 ± 6 nM
B4 | 27.4 ± 1.3 nM
B5 | 6.2 ± 0.7 nM
B6 | 17.7 ± 0.9 nM
B7 | 13.1 ± 0.5 nM
B8 | 54 ± 16 nM
B9 | 46 ± 11 nM
B10 | 23.5 ± 2 nM
B11 | 9.1 ± 0.6 nM
B12 | 80 ± 21 nM
B13 | 33.5 ± 2.6 nM
B14 | 19.7 ± 1.9 nM
B15 | 54 ± 14 nM
B16 | 6.2 ± 0.4 nM
